Results published in paper PMC3087838 (Nature structural & molecular biology, 2011).
Read-outs that look alike come from different tables or passages of the source.

T1: RXRα-VDR heterodimer complex (full length His-hVDR with full length Flag-hRXRα) (human, UniProt P11473 1-427; P19793 1-462)
T1 sequence (looked up) 1: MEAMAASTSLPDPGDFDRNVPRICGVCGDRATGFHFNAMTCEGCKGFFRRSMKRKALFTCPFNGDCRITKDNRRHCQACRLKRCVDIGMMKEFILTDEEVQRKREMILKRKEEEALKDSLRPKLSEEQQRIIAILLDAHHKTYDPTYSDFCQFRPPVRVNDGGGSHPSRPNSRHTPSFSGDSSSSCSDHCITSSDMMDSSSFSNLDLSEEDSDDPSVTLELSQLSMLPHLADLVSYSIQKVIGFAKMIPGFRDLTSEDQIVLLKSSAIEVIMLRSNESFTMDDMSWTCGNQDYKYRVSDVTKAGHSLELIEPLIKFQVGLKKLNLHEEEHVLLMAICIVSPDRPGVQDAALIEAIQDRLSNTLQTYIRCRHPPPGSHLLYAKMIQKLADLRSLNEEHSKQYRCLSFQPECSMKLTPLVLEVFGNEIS
T1 sequence (looked up) 2: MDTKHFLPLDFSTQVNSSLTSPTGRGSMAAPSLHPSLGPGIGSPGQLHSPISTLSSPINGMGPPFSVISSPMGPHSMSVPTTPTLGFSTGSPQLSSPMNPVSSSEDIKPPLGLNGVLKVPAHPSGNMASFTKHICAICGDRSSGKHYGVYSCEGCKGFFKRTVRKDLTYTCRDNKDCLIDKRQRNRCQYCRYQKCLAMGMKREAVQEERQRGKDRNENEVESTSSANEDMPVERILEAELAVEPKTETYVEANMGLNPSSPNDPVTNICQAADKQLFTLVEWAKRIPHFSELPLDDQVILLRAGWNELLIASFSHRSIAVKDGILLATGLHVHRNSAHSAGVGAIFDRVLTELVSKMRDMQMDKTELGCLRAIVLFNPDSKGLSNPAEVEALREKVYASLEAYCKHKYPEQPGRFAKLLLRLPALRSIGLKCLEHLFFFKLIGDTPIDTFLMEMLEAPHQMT

T2: Full length WT Flag-hRXRα (human retinoid X receptor alpha) (human, UniProt P19793 1-462)
T2 sequence (looked up): T1 sequence (looked up) 2

B1: His-hSRC1-RID (627-786) variant 1, receptor interacting domain of human steroid receptor coactivator 1 (domain or fragment, UniProt Q15788-1 627-786, looked up)
chain: SQTSHKLVQLLTTTAEQQLRHADIDTSCKDVLSCTGTSNSASANSSGGSCPSSHSSLTERHKILHRLLQEGSPSDITTLSVEPDKKDSASTSVSVTGQVQGNSSIKLELDASKKKESKDHQLLRYLLDKDEKDLRSTPNLSLDDVKVKVEKKEQMDPCNT
B2: Full length WT His-hVDR (human vitamin D receptor) (receptor, UniProt P11473 1-427, looked up)
chain: T1 sequence (looked up) 1
B3: His-hVDR LBD (residues 118-425, Δ[165-215]) (domain or fragment, human, UniProt P11473 118-425, looked up)
chain: DSLRPKLSEEQQRIIAILLDAHHKTYDPTYSDFCQFRPPVRVNDGGGSVTLELSQLSMLPHLADLVSYSIQKVIGFAKMIPGFRDLTSEDQIVLLKSSAIEVIMLRSNESFTMDDMSWTCGNQDYKYRVSDVTKAGHSLELIEPLIKFQVGLKKLNLHEEEHVLLMAICIVSPDRPGVQDAALIEAIQDRLSNTLQTYIRCRHPPPGSHLLYAKMIQKLADLRSLNEEHSKQYRCLSFQPECSMKLTPLVLEVFGNE

What was measured:
Test in all cases: HDX-MS
[1] = molecular target: B2
[2] = molecular target: T1, RXRα-VDR heterodimer complex (full …)
[3] = molecular target: T2, Full length WT Flag-hRXRα (human …)
[4] = molecular target: T2, Full length WT Flag-hRXRα (human …); remark: listed apart in the source

| Binder | binding result [1] | binding result [2] | binding result [3] | binding result [4] |
| --- | --- | --- | --- | --- |
| B1 | binds | binds | binds |  |
| B2 |  |  |  | binds |
| B3 |  |  |  | binds |
